Measurements: publication PMC7884448

B1: mitochondrial antiviral signaling protein (MAVS): S366A (protein)
parent chain: MPFAEDKTYKYICRNFSNFCNVDVVEILPYLPCLTARDQDRLRATCTLSGNRDTLWHLFNTLQRRPGWVEYFIAALRGCELVDLADEVASVYQSYQPRTSDRPPDPLEPPSLPAERPGPPTPAAAHSIPYNSCREKEPSYPMPVQETQAPESPGENSEQALQTLSPRAIPRNPDGGPLESSSDLAALSPLTSSGHQEQDTELGSTHTAGATSSLTPSRGPVSPSVSFQPLARSTPRASRLPGPTGSVVSTGTSFSSSSPGLASAGAAEGKQGAESDQAEPIICSSGAEAPANSLPSKVPTTLMPVNTVALKVPANPASVSTVPSKLPTSSKPPGAVPSNALTNPAPSKLPINSTRAGMVPSKVPTSMVLTKVSASTVPTDGSSRNEETPAAPTPAGATGGSSAWLDSSSENRGLGSELSKPGVLASQVDSPFSGCFEDLAISASTSLGMGPCHGPEENEYKSEGTFGIHVAENPSIQLLEGNPGPPADPDGGPRPQADRKFQEREVPCHRPSPGALWLQVAVTGVLVVTLLVVLYRRRLH
B2: mitochondrial antiviral signaling protein (MAVS): Thiamet-G (protein)
parent chain: MPFAEDKTYKYICRNFSNFCNVDVVEILPYLPCLTARDQDRLRATCTLSGNRDTLWHLFNTLQRRPGWVEYFIAALRGCELVDLADEVASVYQSYQPRTSDRPPDPLEPPSLPAERPGPPTPAAAHSIPYNSCREKEPSYPMPVQETQAPESPGENSEQALQTLSPRAIPRNPDGGPLESSSDLAALSPLTSSGHQEQDTELGSTHTAGATSSLTPSRGPVSPSVSFQPLARSTPRASRLPGPTGSVVSTGTSFSSSSPGLASAGAAEGKQGAESDQAEPIICSSGAEAPANSLPSKVPTTLMPVNTVALKVPANPASVSTVPSKLPTSSKPPGAVPSNALTNPAPSKLPINSTRAGMVPSKVPTSMVLTKVSASTVPTDGSSRNEETPAAPTPAGATGGSSAWLDSSSENRGLGSELSKPGVLASQVDSPFSGCFEDLAISASTSLGMGPCHGPEENEYKSEGTFGIHVAENPSIQLLEGNPGPPADPDGGPRPQADRKFQEREVPCHRPSPGALWLQVAVTGVLVVTLLVVLYRRRLH

Experiments:
[1] = SDD-AGE of MAVS aggregates, HEK293; settings: glycan lost; control: wild type
[2] = cycloheximide chase, HEK293 and A549; settings: glycan gained; control: without Thiamet-G

Row | Protein | oligomerisation [1] | degradation_or_half_life [2]
1 | B1 | no change | 
2 | B2 |  | no change
